From patent publication US20240409645A1 (DUALYX, published 2024)

T1: mouse IL-2Rγ (mouse, UniProt P34902 23-263)
T1 construct: also called mo IL-2R
T1 sequence (looked up): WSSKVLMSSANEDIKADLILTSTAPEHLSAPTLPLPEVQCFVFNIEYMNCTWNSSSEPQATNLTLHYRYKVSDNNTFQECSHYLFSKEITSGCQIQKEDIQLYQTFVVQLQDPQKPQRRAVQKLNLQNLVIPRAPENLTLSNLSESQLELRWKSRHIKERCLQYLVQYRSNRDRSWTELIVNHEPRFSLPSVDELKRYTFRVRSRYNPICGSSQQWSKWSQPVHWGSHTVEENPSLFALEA

T2: human IL-2Rγ (common cytokine receptor γ-chain) (human, UniProt P31785 23-262, limits assumed)
T2 construct: Recombinant protein coated on the plate or immobilised on a CM5 chip; also called hu IL-2R; CD132
T2 sequence: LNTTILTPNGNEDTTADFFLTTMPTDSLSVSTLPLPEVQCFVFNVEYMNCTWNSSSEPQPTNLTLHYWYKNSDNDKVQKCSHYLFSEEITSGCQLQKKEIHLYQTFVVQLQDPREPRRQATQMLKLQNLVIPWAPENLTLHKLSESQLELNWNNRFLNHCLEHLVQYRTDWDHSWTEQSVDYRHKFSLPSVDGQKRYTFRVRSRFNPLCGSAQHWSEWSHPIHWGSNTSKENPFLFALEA

T3: human IL-2Rα (human, UniProt P01589 22-240, limits assumed)
T3 construct: recombinant protein; also called hu IL-2R; human IL-2Ra
T3 sequence: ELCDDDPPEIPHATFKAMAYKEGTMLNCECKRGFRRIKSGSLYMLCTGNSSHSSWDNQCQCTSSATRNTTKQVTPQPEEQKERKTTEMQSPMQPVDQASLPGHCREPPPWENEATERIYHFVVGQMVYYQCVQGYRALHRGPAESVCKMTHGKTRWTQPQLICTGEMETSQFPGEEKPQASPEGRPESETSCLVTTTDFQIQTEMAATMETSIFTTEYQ

T4: mouse IL-2Rα (mouse, UniProt P01590 22-236, limits assumed)
T4 construct: recombinant protein; also called mo IL-2R; mouse IL-2Ra
T4 sequence (looked up): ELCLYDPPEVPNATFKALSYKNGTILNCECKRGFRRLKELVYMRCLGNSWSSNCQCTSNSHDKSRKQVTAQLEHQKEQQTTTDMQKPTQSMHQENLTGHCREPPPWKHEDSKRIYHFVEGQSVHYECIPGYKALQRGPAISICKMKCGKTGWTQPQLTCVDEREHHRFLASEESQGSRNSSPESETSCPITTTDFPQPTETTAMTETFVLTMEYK


Experiments:
mouse IL-2Rγ [1] = target: T1, mouse IL-2Rγ; experiment: PE binding ELISA, periplasmic extract on coated protein
Procedure, shortened: (§1)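 Human or mouse IL-2Rα, IL-2Rβ or IL-2Rγ protein coated directly overnight at 4° C, blocked with 4% Marvel/PBS for 1 hour.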

[2] = target: T2, human IL-2Rγ (common cytokine receptor …); experiment: as above
Procedure, shortened: as §1

mouse IL-2Rγ [3] = target: T1, mouse IL-2Rγ; experiment: SPR off-rate ranking, periplasmic extract on immobilised protein
Procedure, shortened: (§2)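 Recombinant receptor was amine-coupled in acetate buffer onto a CM5 carboxymethyl dextran chip at approximately 2500 RU. VHH-containing periplasmic extracts were injected at 30 uL/min, and dissociation was followed for 120s to give off-rates.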

[4] = target: T2, human IL-2Rγ (common cytokine receptor …); experiment: as above
Procedure, shortened: as §2

human IL-2Rα [5] = target: T3, human IL-2Rα; experiment: ELISA, P.E. on coated antigen
Procedure, shortened: as §1

mouse IL-2Rα [6] = target: T4, mouse IL-2Rα; experiment: ELISA, P.E. on coated antigen
Procedure, shortened: as §1

human IL-2Rα [7] = target: T3, human IL-2Rα; experiment: SPR, P.E. on immobilised antigen
Procedure, shortened: as §2

mouse IL-2Rα [8] = target: T4, mouse IL-2Rα; experiment: SPR, P.E. on immobilised antigen
Procedure, shortened: as §2

Row | Binder | OD (PE binding ELISA) (mouse IL-2Rγ [1]) [OD450 nm] | OD (PE binding ELISA) [2] [OD450 nm] | koff (mouse IL-2Rγ [3]) [s⁻¹] | koff [4] [s⁻¹] | OD (PE binding ELISA) (human IL-2Rα [5]) [OD450 nm] | OD (PE binding ELISA) (mouse IL-2Rα [6]) [OD450 nm] | koff (human IL-2Rα [7]) [s⁻¹] | koff (mouse IL-2Rα [8]) [s⁻¹]
1 | FJ1427_P035MP04H03 (VHH, VHH in periplasmic extract; also called clone nr) VHH: QLQLVESGGGLVQAGGSLRLSCAASGRTLSRYAMGWFRQAPGKEREFVAADSWGGDTFYADSVEGRFTFSRDNAKNAAYLQMNSLQPEDTATYYCAGAPTSFATTAYSSSNSYRYWGQGTQVTVSS | 0.442 | 1.25 | 0.0297 | 0.001 | – | – | – | –
2 | FJ1427_P035MP04B12 (VHH, VHH in periplasmic extract; also called clone nr) VHH: QVQLVESGGGLVQAGGSLRLSCAASGRTLSRYAMGWFRQAPGKEREFVTANSWGGDTYYADSVQGRFTFSRDNAKNTVYLQMNSLQPEDTAVYYCAAAPTSFATTAYSSSNSYAYWGQGTQVTVSS | 0.074 | 0.936 | 0.116 | 0.00344 | – | – | – | –
3 | FJ1427_P035MP04F01 (VHH, VHH in periplasmic extract; also called clone nr) VHH: QVQLVESGGGLVQAGGSLRLSCAASGRTLSRYAMGWFRQAPGKEREFVTANSWGGDTYYADSVQGRFTFSRDNAKNTVYLQMNSLQPEDTAVYYCAAAPTSFATTAYSSSNSYAYWGQGTQVTVSS | 0.085 | 1.66 | 0.11 | 0.00268 | – | – | – | –
4 | FJ1427_P035MP04E08 (VHH, VHH in periplasmic extract; also called clone nr) VHH: QVQLVESGGGLVQAGGSLRLSCAASGRTLSRYAMGWFRQAPGKEREFVTANSWGGDTYYADSVQGRFTFSRDNAKNTVYLQMNSLQPEDTAVYYCAAAPTSFATTAYSSSNSYAYWGQGTQVTVSS | 0.078 | 1.23 | 0.122 | 0.00197 | – | – | – | –
5 | FJ1427_P035MP04B09 (VHH, VHH in periplasmic extract; also called clone nr) VHH: QVQLVESGGGLVQAGGSLRLSCAASGRTLSRYAMGWFRQAPGKEREFVTANSWGGDTYYADSVQGRFTFSRDNAKNTVYLQMNSLQPEDTAVYYCAAAPTSFATTAYSSSNSYAYWGQGTQVTVSS | 0.083 | 1.54 | 0.122 | 0.00146 | – | – | – | –
6 | FJ1427_P035MP04H01 (VHH, VHH in periplasmic extract; also called clone nr) VHH: QVQLVESGGGLVQAGGSLRLSCAASGRTLSRYAMGWFRQAPGKEREFVTANSWGGDTYYADSVQGRFTFSRDNAKNTVYLQMNSLQPEDTAVYYCAAAPTSFATTAYSSSNSYAYWGQGTQVTVSS | 0.109 | 1.67 | 0.104 | 0.00206 | – | – | – | –
7 | FJ1427_P035MP04G02 (VHH, VHH in periplasmic extract; also called clone nr) VHH: QVQLVESGGGLVQAGGSLRLSCAASGRTLSRYAMGWFRQAPGKEREFVTANSWGGDTYYADSVQGRFTFSRDNAKNTVYLQMNSLQPEDTAVYYCAAAPTSFATTAYSSSNSYAYWGQGTQVTVSS | 0.066 | 0.98 | 0.114 | 0.00148 | – | – | – | –
8 | FJ1427_P035MP04C02 (VHH, VHH in periplasmic extract; also called clone nr) VHH: QVQLVESGGGLVQAGGSLRLSCAASGRTLSRYAMGWFRQAPGKEREFVTANSWGGDTYYADSVQGRFTFSRDNAKNTVYLQMNSLQPEDTAVYYCAAAPTSFATTAYSSSNSYAYWGQGTQVTVSS | 0.07 | 1 | 0.126 | 0.00196 | – | – | – | –
9 | FJ1427_P035MP04A02 (VHH, VHH in periplasmic extract; also called clone nr) VHH: QVQLVESGGGLVQAGGSLRLSCAASGRTLSRYAMGWFRQAPGKEREFVTANSWGGDTYYADSVQGRFTFSRDNAKNTVYLQMNSLQPEDTAVYYCAAAPTSFATTAYSSSNSYAYWGQGTQVTVSS | 0.085 | 1.45 | 0.126 | 0.00306 | – | – | – | –
10 | FJ1427_P035MP04E11 (VHH, VHH in periplasmic extract; also called clone nr) VHH: QVQLVESGGGLVQAGGSLRLSCAASGRTLSRYAMGWFRQAPGKEREFVTANSWGGDTYYADSVQGRFTFSRDNAKNTVYLQMNSLQPEDTAVYYCAAAPTSFATTAYSSSNSYAYWGQGTQVTVSS | 0.065 | 0.94 | 0.117 | 0.00149 | – | – | – | –
11 | FJ1427_P035MP04D10 (VHH, VHH in periplasmic extract; also called clone nr; 364) VHH: QVQLVESGGGLVQAGGSLRLSCAASGRTLSRYAMGWFRQAPGKEREFVTANSWGGDTYYADSVQGRFTFSRDNAKNTVYLQMNSLQPEDTAVYYCAAAPTSFATTAYSSSNSYAYWGQGTQVTVSS | 0.077 | 1.26 | 0.12 | 0.00139 | – | – | – | –
12 | FJ1427_P035MP04F06 (VHH, VHH in periplasmic extract; also called clone nr) VHH: QVQLVESGGGLVQAGGSLRLSCAASGRTLSRYAMGWFRQAPGKEREFVTANSWGGDTYYADSVQGRFTFSRDNAKNTVYLQMNSLQPEDTAVYYCAAAPTSFATTAYSSSNSYAYWGQGTQVTVSS | 0.077 | 1.41 | 0.116 | 0.00298 | – | – | – | –
13 | FJ1427_P035MP04E01 (VHH, VHH in periplasmic extract; also called clone nr) VHH: QVQLVESGGGLVQAGGSLRLSCAASGRTLSRYAMGWFRQAPGKEREFVTANSWGGDTYYADSVQGRFTFSRDNAKNTVYLQMNSLQPEDTAVYYCAAAPTSFATTAYSSSNSYAYWGQGTQVTVSS | 0.067 | 1.08 | 0.109 | 0.00266 | – | – | – | –
14 | FJ1427_P035MP04H05 (VHH, VHH in periplasmic extract; also called clone nr) VHH: QVQLVESGGGLVQAGGSLRLSCAASGRTLSRYAMGWFRQAPGKEREFVTANSWGGDTYYADSVQGRFTFSRDNAKNTVYLQMNSLQPEDTAVYYCAAAPTSFATTAYSSSNSYAYWGQGTQVTVSS | 0.08 | 1.57 | 0.108 | 0.00273 | – | – | – | –
15 | FJ1427_P035MP04H07 (VHH, VHH in periplasmic extract; also called clone nr) VHH: QLQLVESGGGLVQAGGSLRLSCAASGRTLSRYAMGWFRQAPGKEREFVTANSWGGDTYYADSVQGRFTFSRDNAKNTVYLQMNSLQPEDTAVYYCAAAPTSFATTAYSSSNSYAYWGQGTQVTVSS | 0.076 | 0.919 | 0.101 | 0.00154 | – | – | – | –
16 | 4-MP01F04 (VHH, periplasmic extract; also called FJ1427_P035MP01F04) VHH: QVQLVESGGGLVQAGGSLRLSCAASGGTFRTRNMGWFRRAPGKEREFVAAVSWNVDNKLYADSVKGRFTISRDNGRNMVYLQMNSLKPEDTAVYYCAADNIPLSSDMRPTATEYDYWGQGTQVTVSS | – | – | – | – | 2.49 | 0.046 | 0.000258 | 0.256
17 | 38-MP07A11 (VHH, VHH in periplasmic extract; also called FJ1427_P035MP07A11; clone nr) VHH: QVQLVESGGGLVQAGGSLRLSCAASGRSLSRDAMGWFRQAPGKEREFVAVMSWGGDTFYTDSVEGRFTFSRDNAKNAVYLEMNDLQPEDTAVYYCAAAPTSFATTAYSSSNSYSYWGRGTQVTVSS | 0.173 | 1.31 | 0.0149 | 0.00235 | – | – | – | –
